These results are taken from a protein production outcome set (Wang et al. 2014).
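Further: failed if final PepcDB status was selected cloned or expressed and not failed if soluble or beyond.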

This data set in a line: label from the status in PepcDB records.
For “MSILVIGANGGVGSKLVSQLNEEHVDFTAGVRKEDQVKELENKGIKATLIDVEKNSINDLKNIFTDYDKVIFSVGSGGSTGADKTIIVDLDGAVKTIKASKEAGIKHYVMVSTYDSRREAFDASGDLKPYTIAKHYADDYLRTSDLNYTIVHPGSLTDDAGTGKIEADLYFDKAGSIPREDVATVLKEVVTSDGFNNQEFQILSGNHGVKDALKNYESLEHHHHHH”, the protein production entry was “not failed”.

Consider “MMNYKQLLIDNFAFKTSYVAQFVPGMSIKETKDYIAVDCGLPADTFNIITLLNNNLTEGVEKLYKEVEYYNQKKFPMSVWLWDEEQERDIKSELNKIGLKEAEQNIAMVADLKTISPTINMPVSFTIQQASSPGLIKKFGETLANLFGTSEEAIHVQAFYNQISNLDLWNSENMKLFLGFYEGEIVTVGSLICSKDSIGIYDIATKEEMRGRGFGSTMFNFLLQEAQKFKNTYCVLQASTDGINIYKKSGFQAIGKMTVLENRHVIE”, for which the protein production entry is on record as “failed”.

With “MMPSSSTPNAFQYAWRNPWVRLVVFLGLFYLLYLFIGQITTVLVDFAVAFLIAYLANPLLGWLERGRVRRGLGVFFVLLLFLGLLALAGALVVTVGGQFVQLFQNLPAQIDNLNRILDGAVQWLSGRGIPGLADAQTRMTEALRDWIANIGNNIVPILQNALSSTGTLFNRLISIGGVIGQVLLILLLSVYLMLDYARVNASLLRAFPRPWQPKVLEFSDLIGTAVGGYVRGQLLIAAFIGIFVWLGLTIVGIPSAAAIGFLAGAFNIVPYLGPIIGATPALLLALTLPNAGFKMILVVVVFVLANQIEGNFLSPYILSKTTDLHPVTVLLAILVGVALMGFAGALLAVPLVALGKLMLEKYYYPSRVYSQGP”, the protein production entry is recorded as “failed”.

For “MASMTGGQQMGRGSEEPNPNDGYDYMQHGFDWPGLQEGGTTKYPACSGSNQSPIDINTNQLMEPSSRSGTSAVSLNGLNVDGAQADGITLTNAKVDLEQGMKVTFDQPAANLPTIEIGGTTKSFVPIQFHFHHFLSEHTINGIHYPLELHIVMQEQDPADVATAQLAVIGIMYKYSENGDAFLNSLQTQIEGKIGDGTASYGDTGVSIDNINVKTQLLPSSLKYAGYDGSLTTPGCDERVKWHVFTTPREVTREQMKLFVDVTMGAHAGADVVNNRMIQDLGDREVYKYNY”, the protein production result was “not failed”.

Regarding “MSNSTEPALAIITVTYSPGKHLGAFLSSVKEATAQPTYVVLADNGSVDGVPEAAAQADPSVEFFPTGGNIGYGSAINAAVRKLAPLRESGKINAEFFVLSNPDVVFEPGSIDAMVQCASRHPQAADIGPYIRQSDGSAYPSARQVPTIKNGVGHALFSSVWPSNPWSRAYRDNRDMTTERTAGWLSGSCLLVRWDAFEQIGGFDERYFMYMEDVDLGDRFGRAGFDNVFCPDAVITHAVGHAAGKHPEKMLPAHHDSAYRFQADRHPGLRYLPLRVLLRVGLKLRAVVAVAAAKFKLEHHHHHH”, the protein production result was “not failed”.

For “MGKEFFLQHDIVIMYSILFVFIIILKMQFFTWFGMLACMFGIVFYTLNEYMTHRFLFHIKPPKNTFLLKMLRRLHYDHHVYPDDLKLLFLPVWFSIPSFTIYLLIAYGITKSVTITLSFGIGMIIMLLVYEWKHYIAHRPIRPVTKFGRWLKKQHILHHYKNEKFWFGVSNPVFDFIFGTLKDGKDVELSETARNLEKEKKTKVVR”, the protein production entry is “failed”.

For “MSKEDAWNMVTIYPAKQLRVDEYVGSLTPGKMADIVLWNAEPLSIYAKVTHAWVEGKRYFDREQDQLAQLEHHHHHH”, the protein production result was “failed”.

“KERERLEEKLEDANERIAELVKLEERQRIARDLHDTLGQKLSLIGLKSDLARKLIYKDPEQAARELKSVQQTARTSLNEVRKIVSSMKGIRLKDELINIKQILEAADIMFIYEEEKWPENISLLNENILSMCLKEAVTNVVKHSQAKTCRVDIQQLWKEVVITVSDDGTFKGEENSFSKGHGLLGMRERLEFANGSLHIDTENGTKLTMAIPNNSK”: the protein production result is “not failed”.

With “MADLSFIEDTVAFPEKEEDEEEEEEGVEWGYEEGVEWGLVFPDANGEYQSPINLNSREARYDPSLLDVRLSPNYVVCRDCEVTNDGHTIQVILKSKSVLSGGPLPQGHEFELYEVRFHWGRENQRGSEHTVNFKAFPMELHLIHWNSTLFGSIDEAVGKPHGIAIIALFVQIGKEHVGLKAVTEILQDIQYKGKSKTIPCFNPNTLLPDPLLRDYWVYEGSLTIPPCSEGVTWILFRYPLTISQLQIEEFRRLRTHVKGAELVEGCDGILGDNFRPTQPLSDRVIRAAFQLEHHHHHH”, the protein production entry is recorded as “not failed”.

With “MSRVKILDEETISHIAAGEVVERAASVVKELVENAVDADAQIIRIGISADKTGITKISVTDDGIGMDFDDALLAFRQHATSKISRPEDLDGITTLGFRGEALASIAAISKVTFTTKERGSPSPEAARVVIHGGELISHSAVGAPEGTSVLIDALFYNTPARRKFQKSVPTELSHVYDMVERIALSNRNISFVLLYNGKERFQTFGTGSYPDVIAAVFGSTFSKELTPVSGSFGPVKIDGWITRPGSEMKTTQTRFYLSINGRQVTSRQLQWAIREGYGTLLPKGMYPAAFLDIVLDPRDVDVNVHPTKREVRLSREREVMRCVQDAVYTSLHEERVFSTAPMPTLARETITTLPVEIVGEPVPVYAGKQEMHEARQAPLKQTEKQLRRTESADLPETDLFVPEVLGQIGDTYILAKNESGDLIVVDQHAAHERIMYDQLLARSSSAEAGQELIVPQPITLSKKETAALPDLLDVLAAAGYLLEPFGKDVWMVRSVPVVSSTLGDPDTIHAILDAALDGVGNTDEVLDRVLKTAACRAVVKGNTPLTIEQMQRLLRQLMATKSPYTCPHGRPTTIVLSKSRLAGMFLRT”, the protein production entry is reported as “failed”.

Turning to “MELREVAAVSGRGGLFKILKPTKNGVILEAIDPSKKRFVAGANERVSILNEISIYTTDKDGSVPLESVLHKIHAKYGADTKITGKSSNDELGNFLSSILPEYDREKVYHSDIKKLANWYAILQANFPELLVAKKEAAPKTEAKPAEAKEEKVKAVKEEKAEAPAPAAKKAAAKKVKEVSEEATEKPAAKKAAAKKTAKAKGE”, the protein production entry is listed as “failed”.

As to “MAVSSGTFSTFLCIKTTSFRNPSTPLSSLRFASHPAAKLRLVRAVTSATESSEPTATNKRVPRGIMKPRPVSPEMQDIVELPEIARTQALKRIWAYIKEHDLQDPQNKREILCDEKLKKIFEGRDRVGFLEIAKLIGPHFL”, the protein production result was “failed”.

“IVAGFTSIPSQGDNMPAYHARPKQSDGPLPVVIVVQEIFGVHEHIRDICRRLALEGYLAIAPELYFREGDPNDFADIPTLLSGLVAKVPDSQVLADLDHVASWASRNGGDVHRLMITGFCWGGRITWLYAAHNPQLKAAVAWYGKLTGDKSLNSPKQPVDIATDLNAPVLGLYGGQDNSIPQESVETMRQALRAANAKAEIIVYPDAGHAFNADYRPSYHAESAKDGWQRMLEWFTQY”: the protein production result is “failed”.

For “MAAPVVVAPAINLQHMDLPEGNEDVAAVLQTSTQRWLNAAEWSILYNNHNLFPESNSFTIPIEVEGLYRVDNRFNQDSNTWRNTSAPSTCKNAINFYNVRIATGLYRFDDDGDIVMDAEVQGGWVLCRKTVRNRGHCGTRLSHLYKPVFDRQFKMLKIHMMEDMIKDGEEKSLDTFVISRQLTTFTDLTGWAFGSSVIVEFKVRLEHLRGKSIPIA”, the protein production entry is on record as “failed”.

As to “MKMKLPLPKPSTKIAKKPQQLALLNQRLNQLSQQFKQALAQEDYQRAYECVHEVIHLVPDHRVAYMDLAYTALRLKRFDAAYQHYQKALELSEKNIDPNIYDGLTEVAYFLNQQEQVRHYGHLSLKTKQKQVASETMTALPHSAPPPISIESPEQNIIAFSLFGDQPRYCETAILNVIEARKIYPEWRCRFYVDESVPSSVLSRLQQHGAQLVLVSPEQQQISGLFWRFFVMDDPEVKRFLIRDADSLISMREREAVDEWLQSDRWFHVMRDYYSHTELILAGMWGGCTGIFHQIETSIRQYIASGRYLNERVIDQHFLRYCIWPTLQQSVITHDRYLFADNASRFPQDRDRQPDWRIQYQHVGMNESAATVSVTVNHPDAVRVKWVLLNQMKQIVCQYSAQVLSNRSIEIHLPENYVEKIRLKAWNLQIYPYEN”, the protein production entry is recorded as “failed”.

Regarding “MEELFCIGCGARIQTENKDAAGYTPRAALEKGLETGELYCQRCFRLRHYNEITDVHITDDEFLKLLHEVGDSDALVVNVIDIFDFNGSIIPGLSRFVAGNDVLLVGNKKDILPKSVKDGKVTQWLTERAHEEGLRPVDVILTSAQNHHAIKDLIDTIEKYRHGQDVYVVGVTNVGKSTLINAIIREITGSRDVITTSRFPGTTLDKIEIPLDDGSYIFDTPGIIHRHQMAHYLTAKNLKYVSPKKEIKPKTYQLNSEQTLFLAGLARFDFISGQKQGFTAYFDNNLNLHRTKLVGADEFYTKHVGKLLTPPTGKEVSDFPKLVRHEFTIKDKMDIVYSGLGWIRVKSEAENPVVVAAWAPEGVAVVLRKALI”, the protein production entry was “failed”.

Turning to “MAISVFDLFKIGIGPSSSHTVGPMRAAALFTAALRQRQALSAVRRLEVRLYGSLSATGVGHGTDRAVIMGLMGEWPDRIDPTQIAPRMAALLDSGLLQLDGRVAVPFDWVRDMRLLDENLPYHPNAMTLVAYGEQGELHQETYYSVGGGFVVDAAQAASGQLDQDHTVLPYDFSSAEELLLLCKRHNLRVSELMLANERIWRSETDIREGLRRIWQAMRDCVDNGLRNEGILPGGLNVQRRAARLHRNLQEIGKPNVIGSTLSAMEWVNLFALAVNEENAAGGRMVTAPTNGAAGIIPAVLHYYMKFNPDAQDRDVVDYLLAAAAVGILCKKNASISGAEVGCQGEVGSACAMAAAGLAEVLGATPAQVENAAEIGLEHNLGLTCDPVGGLVQVPCIERNAIAAVKAINAAQMALRGDGQHFISLDKVIRTMRDTGADMHDKYKETSRGGLAVNAIE”, the protein production result is “failed”.

As for “MTLFDGTPFEWAPGRIEVRARRECGASRKSLVVAAGVSYLARMIFSFDAFVTNALFDRSGRAMFALGDGTVRLQTDEGFVTVEAHGGPLGGAVLAAAVHPSGAGIVTGGDDGRVVWSRIEGGEVVATLIAEVKNKWIEHVAASAASGLIAFTVGKEVHVRDAADPAFARTFPHEKTVSGLAFEPKGRRLASATYGGAYLWYARIADQKPTVLKWAGSHIAVEFSPDGKFLISSMQENQLHGWRLSDGKDMRMGGYPSKIKSVAFFDKGNLLATAGASGAVIWPFAGANGPMGKEAAEIGFSRDSMVVRVAGIDPQPVCIAGQDSGKIWAAHMRNGRIETLKAEKGAPISALSVSADGKRLAWGDESGEAGVLEIPDLSGPRQFVG”, the protein production entry was “failed”.

Turning to “MTKTWEQLSAIQPIGVKMLMNSIAKERISHAYLLEGEKGTGKFATAIQMAKSFLCSQRNRVEPCHVCTNCKRIDSGNHPNLHIVKPDGLSIKKQQIHDLQEEFSKTGLEANKKVYIIEHADRMTANAANALLKFLEEPSSDTTAILLTEQSHQILNTILSRCQVVTFRPLPTESLIRRLQDEGITVSLSTLAAQLTNSFDEALTLCNDEWFAQARALVIKLCEALEKDKASIFFVQEKWGKHFGEKEQLQQGLDMLLLIYKDLLYVQLGEEDRLVFREQKEMFESFSYAQKRIVSALFNILEAKNRINANVNAQLVFEQLVLRLQEG”, the protein production entry was “failed”.
